For two molecules, Kd results are on record in PMC8228355, “SERS-Based Aptasensor for Rapid Quantitative Detection of SARS-CoV-2”.

This data set has as its target RBD of SARS-CoV-2 spike protein (SARS-CoV-2, UniProt P0DTC2 319-541). The data set is described as follows: BLI; ka ([…]; kd ([…]; RBD 80-1200 nM; […]; BLI on streptavidin sensors, buffer and temperature not stated; […]. The following applies: protein: commercial; label: 5'-biotin.

B1: Biotin-RBD-1C (structured_DNA)
DNA: CAGCACCGACCTTGTGCTTTGGGAGTGCTGGTCCAAGGGCGTTAATGGACA
The molecule B1 displayed a Kd of 13 nM.

B2: Biotin-RBD-1C-sh (structured_DNA)
DNA: TTTGGGAGTGCTGGTCCAAGGGCGTTAATGGACA
Molecule B2 had a Kd of 330 nM.
